Substitutions are numbered along the chain they refer to.

The target of assay [1] is HER2 on HER2+ SK-OV-3 ovarian cancer cells (Homo sapiens, SK-OV-3 cells, UniProt P04626). Nature of the assay: ELISA.
A further assay has as its target Canine HER2 (Canis lupus familiaris, UniProt O18735). As to the kind of experiment: SPR.
The target in assay [2] is Wildtype HER2 domain IV fragment (residues 510-629 of human HER2) (Homo sapiens, UniProt P04626). Nature of the assay: SPR. (In SPR one partner is held on a chip, and binding of the other changes the refractive index at the surface.)

B1: Candidate 2 (de novo designed HCDR3, IgG1 mAb) (antibody, V domains shown)
VH: EVQLVESGGGLVQPGGSLRLSCAASGFNIKDTYIHWVRQAPGKGLEWVARIYPTNGYTRYADSVKGRFTISADTSKNTAYLQMNSLRAEDTAVYYCARYYYGFYYFDYWGQGTLVTVSS
VL: not shown
For B1, in assay [1], the “fold change of EC50 against trastuzumab” value was roughly 3 fold. In the assay with Canine HER2, the binding result was “binds”.

B2: Candidate 3 (de novo designed HCDR3, IgG1 mAb) (antibody, V domains shown)
VH: B1 VH with Y99W, Y100G, Y101N, G102Y, F103Y, F106M
VL: not shown
Take B2: the binding result in assay [2] is recorded as “binds”.

The record behind these values is publication doi:10.1101/2023.01.08.523187 (bioRxiv, 2023).
